US9447149B2, “Methods and compositions for the rapid synthesis of radiometal-labeled probes” (University of Southern California, priority 2012, dated 2016)

Columns and labels:
[1] = biological target: T1, integrin αvβ3 (Homo sapiens, UniProt P05106+P06756); assay: Integrin αvβ3 receptor binding assay (competitive displacement of 125I-echistatin on U87MG cells); conditions: 125I-echistatin radioligand, 3 h, room temperature
T1 construct: host or cells: U87MG human glioblastoma cells (whole cells in suspension)

[2] = in vivo; set-up: species or system mice; conditions: female, athymic nude, mouse, iv, 7.4 MBq, total radioactivity
Description: (§1) The in vivo tumor-targeting efficacy of [^64Cu]1 was evaluated in nude mice bearing U87MG human glioma xenograft tumors (n=3) by static microPET scans at 2, 4, and 20 h after tail-vain injection of [^64Cu]1. U87MG tumors were clearly visualized at all time points examined. […] At 2 h post injection, the tumor/liver, tumor/kidneys, and tumor/muscle ratios reached 2.82±0.76, 2.22±1.49, and 11.79±2.65, respectively. Consequently, the high tumor-to-nontumor ratios provided excellent contrast for PET imaging. Blocking experiment was conducted to confirm the integrin αvβ3 specificity of [^64Cu]1.
(§2) All animal studies were approved by the University of Southern California Institutional Animal Care and Use Committee. Female athymic nude mice (about 4-6 weeks old, with a body weight of 20-25 g) were obtained from Harlan Laboratories (Livermore, Calif.). The U87MG human glioma xenograft model was generated by subcutaneous injection of 5×10^6 U87MG human glioma cells into the front flank of female athymic nude mice. The tumors were allowed to grow 3-5 weeks until 200-500 mm^3 in volume. Tumor growth was followed by caliper measurements of the perpendicular dimensions.
(§3) MicroPET scans and imaging analysis were performed using a rodent scanner (microPET R4 scanner; Siemens Medical Solutions). About 7.4 MBq of [^64Cu]1 was intravenously injected into each mouse (n=3) under isoflurane anesthesia. Five-minute static scans were acquired at 2, 4, and 20 h pi. The images were reconstructed by a two-dimensional ordered-subsets expectation maximum (OSEM) algorithm. For each microPET scan, regions of interest were drawn over the tumor, normal tissue, and major organs on the decay-corrected whole-body coronal images. The radioactivity concentration (accumulation) within the tumor, muscle, liver, and kidneys were obtained from the mean value within the multiple regions of interest and then converted to % ID/g.

[3] = tested on: U87MG human glioma xenograft tumors; assay: in vivo; set-up: species or system mice; conditions: mouse, 10 mg/kg
Description: as §1, §2, §3

[4] = Partition coefficient (1-octanol/PBS); assay type: physicochemical; conditions: 1-octanol / PBS pH 7.4, triplicate
Description: The partition coefficient value was expressed as log P. Log P of [^64Cu]1 was determined by measuring the distribution of radioactivity in 1-octanol and PBS. Approximately 111 kBq of [^64Cu]1 in 2 μL of PBS (pH=7.4) was added to a vial containing 0.5 mL 1-octanol and 0.5 mL of PBS (pH=7.4). After vigorously vortexing for 10 min, the vial was centrifuged at 12,500 rpm for 5 min to ensure the complete separation of layers. 200 μL of each layer was pipetted into test tubes, and radioactivity was measured using a gamma counter (Perkin-Elmer Packard Cobra). The mean value was calculated from triplicate experiments. The log P value of [^64Cu]1 was determined to be […].

[5] = Probe stability in PBS by radio-HPLC; assay type: physicochemical; conditions: for parent [64Cu]1 remaining (radiochemical purity): PBS, room temperature
Description: The in vitro stability of [^64Cu]1 was evaluated in PBS buffer by radio-HPLC. […] This high stability is attributed to Sar cage in the conjugate. In addition, it is known that the U87MG cell line over-expresses integrin αvβ3 receptor [13].
All chemicals and solvents were obtained from Aldrich (Milwaukee, Wis., USA) and used without further purification. 1,8-Diamino-3,6,10,13,16,19-hexaazabicyclo[6.6.6]-eicosine was purchased from Areva Med (Dallas, Tex.). ^125I-Echistatin was obtained from Perkin-Elmer (Waltham, Mass.). ^1H and ^13C nuclear magnetic resonance (NMR) were recorded on a Varian 400 MHz spectrometer. Mass spectrum was obtained on a ThermoElectron Finnigan LTQ mass spectrometer equipped with an electrospray ionization (ESI) source (Thermo Scientific, USA). HPLC analyses were carried out on an analytical reversed-phase high performance liquid chromatography (HPLC) system equipped with a dual UV absorbance detector (Waters 2487) using a phenomenex C18 RP (250×4.6 mm 5 micron). The flow was 1 mL/min, with the mobile phase starting from 100% solvent A (0.1% TFA in water), followed by a gradient mobile phase to 20% solvent A and 80% solvent B (0.1% TFA in acetonitrile) at 30 min. The UV absorbance was monitored at 214 nm and the identification of the peptides was confirmed based on the UV spectrum using a PDA detector. The radioactivity was detected by a model of Ludlum 2200 single-channel radiation detector. The stability study was performed under the same HPLC condition. MicroPET scans were performed on a microPET R4 rodent model scanner (Siemens Medical Solutions USA, Inc., Knoxyille, Tenn.). The scanner has a computer-controlled bed and 10.8-cm transaxial and 8-cm axial fields of view (FOVs). It has no septa and operates exclusively in the 3-dimensional (3D) list mode. Animals were placed near the center of the FOV of the scanner.
The stability of [^64Cu]1 was tested in PBS. In brief, 3.7 MBq of the [^64Cu]1 was pipetted into 0.5 mL of the PBS and incubated in PBS at room temperature. At various time points (1, 6, and 24 h), an aliquot of the solution was taken and the radiochemical purity was determined by reverse-phase HPLC under identical conditions. The parent [^64Cu]1 was determined to be >99%, 98%, and 96% at 1, 6, and 24 h, respectively.

Compound | IC50 [1] [nM] | tissue uptake at 2 h [2] [%ID/g] | tissue uptake at 4 h [2] [%ID/g] | tissue uptake at 20 h [2] [%ID/g] | tissue to tissue ratio at 2 h ([2]; tumor/kidneys ratio) | tissue to tissue ratio at 2 h ([2]; tumor/liver ratio) | tissue to tissue ratio at 2 h ([2]; tumor/muscle ratio) | uptake values of normal organs (liver, kidneys, muscle) with blocking [3] | logP [4] | release of 64Cu from the conjugate ([5]; PBS buffer, over a period of 24 h, radio-HPLC) | parent [64Cu]1 remaining (radiochemical purity) ([5]; 1 h) [%] | parent [64Cu]1 remaining (radiochemical purity) ([5]; 6 h) [%] | parent [64Cu]1 remaining (radiochemical purity) ([5]; 24 h) [%]
N=C(N)NCCC[C@@H]1NC(=O)[C@H](CCCCNC(=O)C2O[C@H](CNC(=O)Cn3nnc4c3-c3ccccc3CN(C(=O)CCNC(=O)CCOCCOCCOCCOCCOCCC(=O)N[C@]35CNCCNC[C@](N)(CNCCNC3)CNCCNC5)c3ccccc3-4)[C@H](O)C(O)[C@@H]2O)NC(=O)[C@@H](Cc2ccccc2)NC(=O)[C@H](CC(=O)O)NC(=O)CNC1=O (stereo partly shown) [compound 1] | 170 ± 3 |  |  |  |  |  |  |  |  |  |  |  | 
N=C(N)NCCC[C@@H]1NC(=O)[C@H](CCCCNC(=O)[C@H]2O[C@@H](CNC(=O)Cn3nnc4c3-c3ccccc3CN(C(=O)CCNC(=O)CCOCCOCCOCCOCCOCCC(=O)NC35CNCCNCC(N)(CNCCNC3)CNCCNC5)c3ccccc3-4)[C@H](O)[C@@H](O)[C@H]2O)NC(=O)[C@@H](Cc2ccccc2)NC(=O)[C@H](CC(=O)O)NC(=O)CNC1=O [[^64Cu]1, metal not drawn] |  | 4.96 ± 0.65 | 4.11 ± 0.48 | 2.41 ± 0.31 | 2.22 ± 1.49 | 2.82 ± 0.76 | 11.8 ± 2.65 | lower than those without coinjection of c(RGDyK) | 4.94 ± 0.1 | no release of ^64Cu from the conjugate | > 99 | 98 | 96
